# Experimental data reported in the nanobody polyreactivity screen of Harvey et al. (2022).
# Assay: yeast display, Sf9 membrane polyspecificity reagent, FACS + sequencing; frameworks hold sequencing errors
# Procedure, shortened: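 Using colony PCR, genes from sorted yeast display clones were amplified, then sequenced on MiSeq at 2 × 250 and filtered by CDR length. The clones had been stained with 10% biotinylated, detergent-solubilized Sf9 membrane reagent for 1 hour at 4 °C and sorted by FACS into low and high (top ~1%) gates on anti-HA and streptavidin fluorescence. Polyreactivity labels come from the gate of origin.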
row,Sequence,polyreactivity (PSR sort gate)
1,QVQLEESGGGLVQAGGSLRLSCAASGGIFWYNAMGWYRQAPGKERELVADISSSGITYYADSVKGRFTISRDNAKNTVYLQMNSLKPEDTAVYYCAADSTTRPGLRVYDDYDYWGQGTQVTVSS,low polyreactivity
2,QVQLVESGGGLVQAGGSLRLSCAASGRIFERYAMGWYRQEPGKERELVAGISISGGGTYYADSVKGRFTISRDNAKNTVYLQMNSLKPEDTAVYYCAGTFPREEYGYWGQGTQVTVSS,low polyreactivity
3,QVQLVESGGGLVQAGGSLRLSCAASGGIFGTYTMGGYRQSPGKEREFVAAIRSSSGRTYYADSVKGRFTISRDNAKNTVYLQMNSLKPEVTAVYYCNAKYYGYRVGKYYPFGYWGQGTQVTVSS,high polyreactivity
4,QVQLVETGGGLVQAGGSLRLSSAASGRTFAYYAMGWYRQAPGKERELVAAISSGGGSTYYADSVKGRFTISRDNAKNTVYLQMNSVKPEDTAVYYCNKGFNYCGWFKKYGYWGQGTQVTVSS,high polyreactivity
5,QVQLVESGGGLVQAGGSLRLSCAASGFIFLGNAMGWYRQAPGKERELVASISRGGSTNYADSVKGRFTISRDNAKNTVYLQMTSLKPEDTAVYYCAADLSDKFGYWGQGTQVTVSS,low polyreactivity
6,QVQLVESGGGLVQAGGSLRLSCAASGFIFVVYTMGWYRQAPGKERELVAAITSGGSTYYADSVKGRFTISRDNAKNTVYLQMNSLKPEDTAVYYCYALASRYPAYYYWGQGTQVTVSS,low polyreactivity
7,QVQLVESGGGIVQAGGSLRLSSAASGSIFYYYAKGWYRQAPGKERELVATINISDGSTYYADSVKGRFTISRDNAKNTVYLQMNSLKPEDTAVYYCAAYYYFLDYDYWGQGTQVTVSS,low polyreactivity
8,QVQLVESGGGLVQSGGSLRLSCAASGLTLGHNAMGLYRQAPGKERELVAAITRGGSTNYSDSVKGRFTISRDNAKNTVYFHMNSLKPEYTAVYSCAADLYLGWYYGFEYDYWGQGTQVTVSS,low polyreactivity
9,QVQLVESGGGLVQAGGSLRLSCAASGRTFRYYAMGWYRQAPGKERELVAAITGSGGSTYYADSVKGRFTISRDNAKNTVYLQMNSLKPEDTAVYYCATRWALRWRGGYWGQGTQVTVSS,high polyreactivity
10,QVQLVESGGGLVQAGGSLRLSCAASGRTFGYAMGWYRQAPGKERERVAAISSGGGRTYYADSVKGRFTISRDNAKNTVYLQMNSLKPEDTAVFYCNARHIFGASRRARFGYWGQGTQVTVSS,high polyreactivity
11,QVQLVESGGGLVQAGGSLRLSCAASGSTFSSYTMGWYRQAPGKERELVAAISRSGGRTYYADSVKGRFTISRDNAKNTVYLQMNSLKPEDTAVYYCNAGLGIEYDYWGQGTQVTVSS,low polyreactivity
12,QVQLVESGGGLVQAGGSLRLSCAASGFIFYYYAMGWYRQAPGKERELVAAISWSGGSTYYADSVKGRFTISRDNAKNTVYLQMNSLKPEDTAVYDCAVSRDSYGGKGSFLYDYWGQGTQVTVSS,low polyreactivity
13,QVQLVESGGGLVQAGGSLRLSCAASGFTSRRYAMGWYRQAPGKERELVAAISWSGGSTYYADSVKGRFTISRDNAKNTVYLQMNSLKPEDTAVYYCAAKRYSSKRGLDYWGQGTQVTVSS,high polyreactivity
14,QVQLVESGGGLVQAGGSLRLSCAASGRTFRWYTMGWYRQAPGKEREFVAAITWSGSSTNYADSVKGRFTISRDNAKNTVYLQMNSLKPEDTAVYYCAAENRRRRDDYWGQGTQVTVSS,high polyreactivity
15,QVQLVESGGGLVQAGGSLRLSCAASGSTFRYYAMGWYRPAPGKERELVAAINSSGGSTYYADSVKGRFTISRDNAKNTVYLQMNSLKPEDTAVYYCATVYAYTGWLTNPREYSRYDYWGQGTQVTVSS,low polyreactivity
16,QVQLVESGGGLVQAGGSLRLSCAASGITFVRNAMGWYRQAPGKERELVAAISGRGGITYYADSVKGRFTISRDNAKNTVYLQMNSLKPEDTAVYYCAASSAGSSYNYWGQGTQVTVSS,high polyreactivity
17,QVQLVESGGGLVQAGGSLRISCAASGSIFHTYAMGWYRQAPGKERELVAAITVSGGDTYYADSVKGRFTISRDNAKNTVYLQMHSLKPEDTAVYYCAVDTTTSYTVEYDYWGQGTQVTVSS,low polyreactivity
18,QVQLVESGGGLVQAGGSLRLICAASGYNCKYYAMGWYRAAPGKERELVASITSGGRTNYADSVKGRFTISRDNAKNTVYLQMNSLKPEDTAVYYCASRKPWKFVRTYTYDYWGQGTQLTVSS,high polyreactivity
19,QVQLVESGGGLVQAGGSLRLSCPASGSTFWYYAMGWYRQAPGKERELVAAITRGGSTNYADSVKGRFTISRDNAKNTVYLQMNSLKPEDTAVYYCAKDGPQYRYYYWGQGTQVTVSS,high polyreactivity
20,QVQLVESGGGLVQAGGSLRLSCAASGSTFYHNAMGWYRQAPGKERELVAAITTSGGSTYYADSVKGRFTISRDNAKNTVYLQMNSLKPEDTAVYYCNVYRPYLAPYDYWGQGTQVTVSS,low polyreactivity
21,QVQLVESGGGLVKAGGSLRLSCAASGRIFTANAMGWYRQAPGKEREFVAAITTSDGTYYADSVKGRFTISRDNAKNTVYLQMNSLKPEDTAVYYGATDTATYPTAMDYWGQGTQVTVSS,low polyreactivity
22,QVQLVESGGGLVQAGGSLRLSCAASGRIFAGYAMGWYRQAPGKERELVAGISNRGGSTYYADSVKGRFTISRDNAKKTVYLQMNRLKPEDTAVYYCAVRRRSLGGYWGQGTQVTVSS,high polyreactivity

row,Sequence,polyreactivity (PSR sort gate)
1,QVQLVESGGGLVQAGGSLRLSCAASGSIFVYYTMGWYRQAPGKERELVAAISFSGGSTYADSVKGRFTISRDNAKNTVYLQMNSLKPEDTAVYFCNADRWLYTPSKFVEMDYWGQGTQVTVSS,low polyreactivity
2,QVQLVESGGGLVQAGGSLRLSCAASGFIFSNYAMGWYRQAPGKERELVARISSSGGSTYYADSVKVRFTISRDIAKNTVYLQMNSLKPEVTAVYYCAAGFNLPAWGWAYYYWGQGTQVTVSS,high polyreactivity
3,QVQLVESGGGLVQAGGSLRLSCAASGSIFGEYVRGWYREAPGKERELVADISWRDGDTYYADSEKGRFTISRDNAKNTVYLQMNSLKPEDTAVYYCAADVIVPESYGYWPLSYYYWGQGTQVTVSS,low polyreactivity
4,QVQLVESGGGLVQAGGSLRLSCAASGINFVYYAKGWYRPAAGKERELVAGITVNGGNTYYADSVKGRFTLSRDNAKNTVYLQMNSLKPEDTAVYYCNADYYWVLGVFDYWGHGTQVTVSS,low polyreactivity
5,QVQRVESGGGLVQAGGSLRLSCAASGRIFRYNAMGWYRQAPGKERELVAAISGTADRTYYADSVKGRFTNSRDNAKNTVYLQMNSLKPEDTAVYYCAVAYSYRYYYWGQGTQVTVSS,high polyreactivity
6,QVQLVESGGGLVQAGGSLRLSCAASGSTFKYYAMGWYRQAPGKERELVASITSGGSTYYADSVKGRFTISRDNAKNTVYLQMNSLKPEDTAVYYCNKRWITSYYTRYDYWGQGTQVTVSS,high polyreactivity
7,QVQLVESGGGLVQAGGSLRLSCAASGITFTYYAMGWYRQAPGKERELVAGISRGGSTYYADSVKGRFTISRDNAKNTVYLQMNSLKPEDTAVYYCAATSYRRTGYNYWGQGTQVTVSS,high polyreactivity
8,QVQLVESGGGLVQAGGSLRLSCAASGRIFLVYAMGGSRQAPGKDRELVAAISWSTGSTYYADSVKGRFTISRDNAKNTVYLQMNSLKPEDTAVYYCAAEPELDEYEHDYWGQGTQVTVSS,low polyreactivity
9,QVQLKESGGGLVQAGGSLRLSCAASGNIVDADIMGWYRQAPGKERELVASITDGGSTNYADSVKGRFTISRDNAKNTVYLQMNSLKPEDTAVYYCAAIAYPDIPTYFDYDSEYFYWGQGTQVTVSS,low polyreactivity
10,QVQLVESGGGLVQAGGSLRLSCAASGFIFPDYAMGWYRPAPGKERELVAAINRRGSRTYYADSVKGRFTISRDNAKNTVYLQMNSLKPEDTAVYYCNRDVGKVYAVIYDYWGQGTQVTVSS,high polyreactivity
11,PVQLVESGGGLVQAGGSLRLSCADSGNIFTYNAMGWSRPEPGTERELVAGITSAGGTYYADSVKGRFTISRDNAKNSVYLQMNSLKPEDTAVYYWNVDYDNDTVRGDKIGYSYEYWGHGTQVTVSS,low polyreactivity
12,QVHLVESDGGLVQAGGSLRLSCAASGIIFGYYVMGWYRQAPGKERELVASITSGGSTNYADSVKGRYTISRDNAKNTVYLQMNSLIPEYTAVYYCATDEPVGRYKHNYYWGQGTKVTVSS,low polyreactivity
13,QVQLVESGGGLVQAGGSLRLSCAASGLTFWFYAMGWYRQAPGKERELVASISRGGRTYYADSVKGRFTISRDNAKNTVYLQMNSLKPEDTAVYYCIADELYYEYKDYDYWGQGTQVTVSS,low polyreactivity
14,QVQLVESGGGLVQAGGSLRLSCAASGIIFKLYAMGWYRQAPGKEREFVATITKTCGRTYYADSVKGRFTISRDNAKNTVYLQMNSLKPEDTAVYYCAARRVNGKMYYWGQGTQVTVSS,high polyreactivity
15,QVQLVESGGGLVQAGCSLRLSCDASGSIFPGNAMGWYRQAPGKEREFVAAISWSGGSTNYADSVKGRFTISRDNAKNTVYLQMNSLKPEDTAVYFCAKRFVRRDPTTQLYGKAYEYWGQGTQVTVSS,high polyreactivity
16,QVQLVESGGGLVQAGGSLRLSCAASGIIFPRYMGWYRQEPGKERELVAAIRWSSDDTNYADSVKGRFTISRDNAKNTVYLQMNSLKPEDSAVYYCAKDSLYGVPFDVDYWGQGTQVTVSS,low polyreactivity
17,QVQLVESGGGLVQAGGSLRLSCAASGIIFAYNTMGWYRQAPGKARELVAAITYRGGRTYYADSVKGRFRISRDNAKNTFYLQMNSLKPEDTAVYYCAAGRGVYSYGYNYWGHGTQVTVSS,high polyreactivity
18,QVQLVESGGGLVQAGGSLRLSCSASGRTFVRNAMGWYRQAPGKERELVAAISSIGDSTYYADSVKGRFTISRDNAKNTVYLQMNSLKPEDTAVYYCNARGYVYYRMGYWGQGTQVTVSS,low polyreactivity
19,QVQLVESGGGLVQAGGSLRLSCAASGIIFGRYAMGWYRHAPGKERELVAAISTSGCSTYYADSVKGRFTISRDNAKTTVYLQMNSLKPEDTAVYYCAARHREAQRRYDYWGQGTQVTVSS,high polyreactivity
20,QDQLVESGGGLVQAGGSLRLSCAASGFIFWRNTMGWYRQAPGKERELVAVITRGGSTYYADSVKGRFTISRDNAKNTVYLQMNSLKPEDTAVYYCAALNDYYKTFSGYDYWGQGTQVTVSS,low polyreactivity
21,QVQLVESGGGLVQAGGSLRLSCAASGRTFYSYVMGWYRQSPGKERELVAAINNSGGGTYYADSVKGRFTISRDNAKNTVYLQMNSLKPEDTAVYYCNAVGGYWFDYWGQGTQVTVSS,high polyreactivity
